Experiments:
p19-INK-4d peptide = target: T1, p19-INK-4d peptide
T1 chain: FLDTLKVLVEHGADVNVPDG

Gankyrin/p28-II peptide = target: T2, Gankyrin/p28-II peptide
T2 chain: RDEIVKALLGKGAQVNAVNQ

M110 peptide = target: T3, M110 peptide
T3 chain: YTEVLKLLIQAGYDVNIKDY

[1] = target: T4, CAD, HIF C-terminal transactivation domain standard peptide
T4 chain: DESGLPQLTSYDCEVNAPI

p105 21 mer peptide = target: T5, p105 21 mer peptide
T5 chain: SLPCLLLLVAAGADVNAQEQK

[2] = target: T6, GST HIF-1α 786-826, Q16665; conditions: scale: % activity relative to GST HIF-1α 786-826
T6 chain: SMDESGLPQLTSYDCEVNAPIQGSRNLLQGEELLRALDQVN

Tankyrase 1/2 peptide = target: T7, Tankyrase 1/2 peptide
T7 chain: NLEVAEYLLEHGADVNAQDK

IkBa 21 mer peptide = target: T8, IkBa 21 mer peptide
T8 chain: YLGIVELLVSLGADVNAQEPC

FGIF peptide = target: T9, FGIF peptide
T9 chain: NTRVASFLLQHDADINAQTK

Myotrophin peptide = target: T10, Myotrophin peptide
T10 chain: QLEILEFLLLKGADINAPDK

FEM-1 21 mer peptide = target: T11, FEM-1 21 mer peptide
T11 chain: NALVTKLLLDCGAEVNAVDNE

[3] = target: GST p105 ARD N to A mutant; conditions: scale: % activity relative to GST HIF-1α 786-826
[4] = target: T12, p105 ARD (ankyrin repeat domain of p105, amino acid residues 537-809), free form; conditions: scale: % activity relative to GST HIF-1α 786-826
T12 chain: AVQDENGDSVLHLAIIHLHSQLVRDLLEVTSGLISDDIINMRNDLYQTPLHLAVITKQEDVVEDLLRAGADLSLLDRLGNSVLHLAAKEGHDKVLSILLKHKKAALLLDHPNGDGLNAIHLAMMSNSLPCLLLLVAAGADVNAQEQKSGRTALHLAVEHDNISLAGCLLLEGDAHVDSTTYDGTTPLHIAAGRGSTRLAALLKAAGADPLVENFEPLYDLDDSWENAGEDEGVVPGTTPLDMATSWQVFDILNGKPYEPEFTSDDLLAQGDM

2-5A-d-R peptide = target: T13, 2-5A-d-R peptide
T13 chain: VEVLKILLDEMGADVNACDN

[5] = target: T14, IkappaB-alpha, recombinant protein, P25963
T14 chain: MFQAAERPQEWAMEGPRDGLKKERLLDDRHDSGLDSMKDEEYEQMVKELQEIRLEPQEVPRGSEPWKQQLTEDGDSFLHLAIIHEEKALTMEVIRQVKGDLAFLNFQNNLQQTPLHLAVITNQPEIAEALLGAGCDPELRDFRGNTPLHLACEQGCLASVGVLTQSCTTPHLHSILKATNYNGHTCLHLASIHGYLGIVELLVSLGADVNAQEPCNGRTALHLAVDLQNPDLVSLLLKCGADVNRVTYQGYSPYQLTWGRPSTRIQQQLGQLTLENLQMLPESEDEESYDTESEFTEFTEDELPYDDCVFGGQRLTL

GST p105 ARD = target: T15, GST p105 ARD; conditions: scale: % activity relative to GST HIF-1α 786-826
T15 chain: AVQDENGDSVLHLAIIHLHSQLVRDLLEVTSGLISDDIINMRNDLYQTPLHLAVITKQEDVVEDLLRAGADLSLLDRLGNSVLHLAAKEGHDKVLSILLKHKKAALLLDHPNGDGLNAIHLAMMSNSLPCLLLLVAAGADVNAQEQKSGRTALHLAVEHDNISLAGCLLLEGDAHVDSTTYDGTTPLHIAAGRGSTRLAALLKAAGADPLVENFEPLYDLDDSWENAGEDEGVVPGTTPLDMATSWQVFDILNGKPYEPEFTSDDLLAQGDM

GABPbeta peptide = target: T16, GABPbeta peptide
T16 chain: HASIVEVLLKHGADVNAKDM

[6] = scale: % activity relative to GST HIF-1α 786-826

B1: factor inhibiting hypoxia-inducible factor (FIH), highly purified recombinant (protein)
chain: MAATAAEAVASGSGEPREEAGALGPAWDESQLRSYSFPTRPIPRLSQSDPRAEELIENEEPVVLTDTNLVYPALKWDLEYLQENIGNGDFSVYSASTHKFLYYDEKKMANFQNFKPRSNREEMKFHEFVEKLQDIQQRGGEERLYLQQTLNDTVGRKIVMDFLGFNWNWINKQQGKRGWGQLTSNLLLIGMEGNVTPAHYDEQQNFFAQIKGYKRCILFPPDQFECLYPYPVHHPCDRQSQVDFDNPDYERFPNFQNVVGYETVVGPGDVLYIPMYWWHHIESLLNGGITITVNFWYKGAPTPKRIEYPLKAHQKVAIMRNIEKMLGEALGNPQEVGPLLNTMIKGRYN
For B1, the Activity + FIH (relative to synthetic HIF1alphaCAD) (relative to synthetic HIF1alphaCAD) (p19-INK-4d peptide) was 124, the “Hydroxylation of peptide observed by LC-MS analysis” value (shortened to “Hydroxylation of peptide observed”) (p19-INK-4d peptide) was “Yes” and the Activity + FIH (relative to synthetic HIF1alphaCAD) (relative to synthetic HIF1alphaCAD) (Gankyrin/p28-II peptide) was 116. For the same protein, the “Hydroxylation of peptide observed” value (Gankyrin/p28-II peptide) was “Yes”, the Activity + FIH (relative to synthetic HIF1alphaCAD) (relative to synthetic HIF1alphaCAD) (M110 peptide) was 122 and the “Hydroxylation of peptide observed” value (M110 peptide) was “Yes”. For the same protein, the Activity + FIH (relative to synthetic HIF1alphaCAD) (relative to synthetic HIF1alphaCAD) [1] was 100, the “Hydroxylation of peptide observed” value [1] was “Yes” and the % activity relative to GST HIF-1α 786-826 (decarboxylation of 2OG) [1, 6] was 75. The “2D-NMR spectra of the peptide after incubation with FIH” value (p105 21 mer peptide) was “consistent with asparaginyl hydroxylation”, the % activity relative to GST HIF-1α 786-826 (decarboxylation of 2OG) (p105 21 mer peptide; [6]) was 100 and the % activity relative to GST HIF-1α 786-826 (decarboxylation of 2OG) [2] was 100. The “MALDI ToF mass spectrometry of the tryptic digest after incubation with FIH” value (p105 ARD L668K mutant) was “following incubation with FIH, a peak at 1,542 Da appears in the spectrum that corresponds to the hydroxylated 1,526 Da peptide i.e. +16 Da”, the Activity + FIH (relative to synthetic HIF1alphaCAD) (relative to synthetic HIF1alphaCAD) (Tankyrase 1/2 peptide) was 107 and the “Hydroxylation of peptide observed” value (Tankyrase 1/2 peptide) was “Yes”. The “site of hydroxylation by LC-MS” value (Tankyrase 1/2 peptide) was “LC-MS analyses located the site of hydroxylation to the internal asparagine residue in the case of tankyrase”, the “direct peptide substrate hydroxylation by LC-MS” value (IkBa 21 mer peptide) was “both the FEM-1 and IkappaB-alpha peptides were observed to be hydroxylated under standard assay conditions” and the % activity relative to GST HIF-1α 786-826 (decarboxylation of 2OG) (IkBa 21 mer peptide; [6]) was 111. For the same protein, the Activity + FIH (relative to synthetic HIF1alphaCAD) (relative to synthetic HIF1alphaCAD) (FGIF peptide) was 168, the “Hydroxylation of peptide observed” value (FGIF peptide) was “Yes” and the Activity + FIH (relative to synthetic HIF1alphaCAD) (relative to synthetic HIF1alphaCAD) (Myotrophin peptide) was 154. The “Hydroxylation of peptide observed” value (Myotrophin peptide) was “Yes”, the “2D-NMR spectra of the peptide after incubation with FIH” value (FEM-1 21 mer peptide) was “consistent with asparaginyl hydroxylation” and the “direct peptide substrate hydroxylation by LC-MS” value (FEM-1 21 mer peptide) was “both the FEM-1 and IkappaB-alpha peptides were observed to be hydroxylated under standard assay conditions”. It also gave a % activity relative to GST HIF-1α 786-826 (decarboxylation of 2OG) (FEM-1 21 mer peptide; [6]) of 89, a % activity relative to GST HIF-1α 786-826 (decarboxylation of 2OG) [3] of 12 and a % activity relative to GST HIF-1α 786-826 (decarboxylation of 2OG) [4] of 164. For the same protein, the Activity + FIH (relative to synthetic HIF1alphaCAD) (relative to synthetic HIF1alphaCAD) (2-5A-d-R peptide) was 27.8, the “Hydroxylation of peptide observed” value (2-5A-d-R peptide) was “Yes” and the “MALDI-TOF mass spectrometry of tryptic fragments after incubation with FIH” value [5] was “The results demonstrated hydroxylation of the fragment”. The % activity relative to GST HIF-1α 786-826 (decarboxylation of 2OG) [5, 6] was 144, the % activity relative to GST HIF-1α 786-826 (decarboxylation of 2OG) (GST p105 ARD) was 129 and the Activity + FIH (relative to synthetic HIF1alphaCAD) (relative to synthetic HIF1alphaCAD) (GABPbeta peptide) was 107. The “Hydroxylation of peptide observed” value (GABPbeta peptide) was “Yes”.

— patent US20080227848
